Data reported in patent publication US20160060347A1 (MorphoSys, published 2016).

Key:
[1] = biological target: T1, N-terminal peptide aa1-48, BSA-coupled (human; bovine, coupled to carrier protein BSA; C-terminal cysteine introduced to enable coupling); assay: ELISA, coated peptide-BSA, Fab
T1 construct: also called CXCR2 aa1-48 BSA
Protocol: (§1) 384-well Maxisorp plates (Nunc; Cat. #460518) were coated with respective CXCR2 and control peptides coupled either to BSA or Transferrin (TRF) at 1-5 μg/mL and incubated o/n at 4° C. […] After three washing steps, antibodies were added at 5-10 μg/mL and titrated in some experiments. Antibodies were incubated 1 h at room temperature and plates were subsequently washed. Binding of anti-CXCR2 antibodies was detected by using alkaline phosphatase-conjugated anti-human IgG, (Dianova, Cat #109-055-097). AttoPhos fluorescence substrate (Roche, Cat #1484281) was added according to instructions of the manufacturer and fluorescence was measured (excitation at 430 nm, emission at 535 nm) using a microplate reader.

human CXCR2 [2] = biological target: T2, human CXCR2 (human, UniProt P25025 1-360); assay: FACS, CXCR2 CHO Flp-In cells, Fab
T2 construct: Expressed on Flp-In CHO cells (FACS, Fab-ZAP, ADCC, CDC) or on bought PathHunter CHO cells (beta-arrestin assay); the construct in the PathHunter cells is not described; also called chemokine receptor CXCR2; CXCR2 CHO Flp-In cells
T2 sequence: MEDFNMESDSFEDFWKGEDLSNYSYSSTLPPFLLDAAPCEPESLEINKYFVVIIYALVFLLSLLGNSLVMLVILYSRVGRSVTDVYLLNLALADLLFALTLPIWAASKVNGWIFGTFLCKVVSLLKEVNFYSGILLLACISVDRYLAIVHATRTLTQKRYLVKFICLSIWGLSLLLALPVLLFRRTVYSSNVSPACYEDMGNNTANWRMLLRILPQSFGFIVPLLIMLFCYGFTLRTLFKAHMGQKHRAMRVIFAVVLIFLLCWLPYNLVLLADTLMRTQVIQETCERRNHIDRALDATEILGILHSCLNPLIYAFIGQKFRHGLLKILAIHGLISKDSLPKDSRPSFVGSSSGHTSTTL
Protocol: (§2) Human CXCR2-expressing Flp-In™ CHO cells were harvested at ˜80% confluence washed once with PBS (Gibco, Cat #14190-094) and detached using Versene (Invitrogen, Cat #15040-033). Subsequently, cells were counted and centrifuged at 250×g for 5 min at 4° C. Afterwards, cells were diluted in Superblock (Thermo Fisher Perbio Science, Cat #37515) to a cell concentration of 2E+05-1E+06/mL and 100 μL/well were transferred to 96-well microtiter plate (Nunc, Cat#163320). Cells were once centrifuged, supernatant discarded and antibodies added at 1 μg/mL (unless stated otherwise), incubated for 1 h at 4° C. and washed twice with FACS buffer (PBS/3% FCS/0.02% NaN3). Binding of anti-CXCR2 antibodies was detected by incubation of Phycoerythrin-conjugated anti-human IgG (Dianova, Cat #109-116-097) for 1 h at 4° C. Samples were subsequently measured using FACS Array (Becton Dickinson).

[3] = biological target: T3, hu_CXCR2_N-term (1-17)-BSA (human; bovine, coupled to carrier protein BSA; C-terminal cysteine introduced to enable coupling); assay: ELISA, coated peptide-BSA, IgG1
T3 construct: Synthetic linear peptide chemically coupled to the carrier; also called CXCR2_aa1-17_BSA; CXCR2 aa1-17 BSA
Protocol: as §1

[4] = biological target: T1, N-terminal peptide aa1-48, BSA-coupled; assay: ELISA, coated peptide-BSA, IgG1
Protocol: as §1
Target sequence in this assay (P02769 25-607 limits assumed): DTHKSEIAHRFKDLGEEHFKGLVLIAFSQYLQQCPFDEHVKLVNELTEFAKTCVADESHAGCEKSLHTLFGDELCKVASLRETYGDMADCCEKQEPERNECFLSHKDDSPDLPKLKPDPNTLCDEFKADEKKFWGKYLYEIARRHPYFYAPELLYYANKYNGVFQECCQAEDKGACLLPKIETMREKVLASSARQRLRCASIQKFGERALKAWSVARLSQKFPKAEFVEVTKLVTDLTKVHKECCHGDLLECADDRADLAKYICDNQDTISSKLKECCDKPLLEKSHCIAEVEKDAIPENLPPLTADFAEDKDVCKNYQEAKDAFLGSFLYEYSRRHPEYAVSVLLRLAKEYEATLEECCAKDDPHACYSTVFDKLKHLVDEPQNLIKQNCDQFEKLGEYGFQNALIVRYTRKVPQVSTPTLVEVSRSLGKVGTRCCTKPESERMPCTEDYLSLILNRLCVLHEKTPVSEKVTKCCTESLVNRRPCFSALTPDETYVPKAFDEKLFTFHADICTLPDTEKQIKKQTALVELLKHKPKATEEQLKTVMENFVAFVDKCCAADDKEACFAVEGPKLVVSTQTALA

human CXCR2 [5] = biological target: T2, human CXCR2; assay: FACS, CXCR2 CHO Flp-In cells, IgG1
Protocol: as §2

[6] = biological target: T3, hu_CXCR2_N-term (1-17)-BSA; assay: ELISA, coated peptide-BSA, Fab
Protocol: as §1

[7] = biological target: T4, ECL3 peptide aa273-295, BSA-coupled (human; bovine, coupled to carrier protein BSA; C-terminal cysteine introduced to enable coupling); assay: ELISA, coated peptide-BSA, Fab
T4 construct: also called CXCR2 aa273-295 BSA; peptides representing the extracellular domain 3
Protocol: as §1

Measured: binding result

T3 sequence (P02769 25-607 limits assumed): as above
T4 sequence (peptide, as listed by the source limits assumed, chain 1 of 2): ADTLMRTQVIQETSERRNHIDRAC
T4 sequence (P02769 25-607 limits assumed, chain 2 of 2): as the sequence (P02769 25-607 limits assumed) above

B1: CX2-Mab #11 (Fab, V domains shown)
VH: QVQLVQSGAEVKKPGSSVKVSCKASGGTFTDYAISWVRQAPGQGLEWMGGIIPIFGTANYAQKFQGRVTITADESTSTAYMELSSLRSEDTAVYYCARHSYSFDYWGQGTLVTVSS
VL: DIELTQPPSVSVSPGQTASITCSGDNLRKKYAYWYQQKPGQAPVLVIGSKSNRPSGIPERFSGSNSGNTATLTISGTQAEDEADYYCQSYDSGRVVFGGGTKLTVLG
binds: [1] | human CXCR2 [2]

B2: CX2-Mab #14 (Fab, V domains shown)
VH: QVQLQQSGPGLVKPSQTLSLTCAISGDSVSSNSAAWNWIRQSPSRGLEWLGRIYYRSKWYNDYAVSVKSRITINPDTSKNQFSLQLNSVTPEDTAVYYCARDVPYYSDYSHYVYYYGAWFDVWGQGTLVTVSS
VL: DIELTQPPSVSVSPGQTASITCSGDSIPYNYAHWYQQKPGQAPVLVIYDDSDRPSGIPERFSGSNSGNTATLTISGTQAEDEADYYCGAYDKKWVVFGGGTKLTVLG
binds: [1] | human CXCR2 [2]

B3: CX2-Mab #4.1 (antibody, IgG1, V domains shown)
VH: QVQLVQSGAEVKKPGSSVKVSCKASGGTFSSYAISWVRQAPGQGLEWMGHIPPNEGTPWYAQKFQGRVTITADESTSTAYMELSSLRSEDTAVYYCARGYGFDVWGQGTLVTVSS
VL: DIVLTQPPSVSGAPGQRVTISCSGSSSNIGVNIVNWYQQLPGTAPKLLIYSTSNRPSGVPDRFSGSKSGTSASLAITGLQAEDEADYYCATRDGISKSVVFGGGTKLTVLG
binds: [3] | [4] | human CXCR2 [5]

B4: CX2-Mab #4.2 (antibody, IgG1, V domains shown)
VH: QVQLLESGGGLVQPGGSLRLSCAASGFTFSSNGMSWVRQAPGKGLEWVSAISSSGSKTYYADSVKGRFTISRDNSKNTLYLQMNSLRAEDTAVYYCARGYGFDVWGQGTLVTVSS
VL: DIVLTQPPSVSGAPGQRVTISCSGSSSNIGVNIVNWYQQLPGTAPKLLIYSTSNRPSGVPDRFSGSKSGTSASLAITGLQAEDEADYYCGTYDVQSHQMVFGGGTKLTVLG
binds: [3] | [4] | human CXCR2 [5]

B5: CX2-Mab #3.2 (antibody, IgG1, V domains shown)
VH: QVQLLESGGGLVQPGGSLRLSCAASGFTFSSYAMSWVRQAPGKGLEWVSLISQGGLTYYADSVKGRFTISRDNSKNTLYLQMNSLRAEDTAVYYCARGRVGYAFDYWGQGTLVTVSS
VL: DIVLTQPPSVSGAPGQRVTISCSGSSSNIGVNYVNWYQQLPGTAPKLLIYSNNQRPSGVPDRFSGSKSGTSASLAITGLQAEDEADYYCQSRASGFYSVVFGGGTKLTVLG
binds: [3] | [4] | human CXCR2 [5]

B6: CX2-Mab #1.1 (antibody, IgG1, V domains shown)
VH: QVQLVQSGAEVKKPGSSVKVSCKASGGTFSSYAISWVRQAPGQGLEWMGGIIPIVGEAKYAQKFQGRVTITADESTSTAYMELSSLRSEDTAVYYCARDSSGYDGYYAFAYWGQGTQVTVSS
VL: DIVLTQPPSVSGAPGQRGTISCSGSSSNIGSSSVNWYQQLPGTAPKLLIYRNNQRPSGVPDRFSGSKSGTSASLAITGLQAEDEADYYCGSTDMSTNSIVFGGGTKLTVLG
binds: [3] | [4] | human CXCR2 [5]

B7: CX2-Mab #1.3 (antibody, IgG1, V domains shown)
VH: QVQLVQSGAEVKKPGSSVKVSCKASGGTFSSYAISWVRQAPGQGLEWMGGIIPIVGEAKYAQKFQGRVTITADESTSTAYMELSSLRSEDTAVYYCARDSSGYDGYYAFAYWGQGTQVTVSS
VL: DIVLTQPPSVSGAPGQRGTISCSGSSSNIGSSSVNWYQQLPGTAPKLLIYRNNQRPSGVPDRFSGSKSGTSASLAITGLQAEDEADYYCAVTTKPQGIVFGGGTKLTVLG
binds: [3] | [4] | human CXCR2 [5]

B8: CX2-Mab #1.6 (antibody, IgG1, V domains shown)
VH: QVQLVQSGAEVKKPGSSVKVSCKASGGTFSSYAISWVRQAPGQGLEWMGGIIPIVGEAKYAQKFQGRVTITADESTSTAYMELSSLRSEDTAVYYCARDSSGYDGYYAFAYWGQGTQVTVSS
VL: DIVLTQPPSVSGAPGQRGTISCSGSSSNIGSSSVNWYQQLPGTAPKLLIYRNNQRPSGVPDRFSGSKSGTSASLAITGLQAEDEADYYCASRDHFSHGLVFGGGTKLTVLG
binds: [3] | [4] | human CXCR2 [5]

B9: CX2-Mab #1.4 (antibody, IgG1, V domains shown)
VH: QVQLVQSGAEVKKPGSSVKVSCKASGGTFSSYAISWVRQAPGQGLEWMGGIIPIVGEAKYAQKFQGRVTITADESTSTAYMELSSLRSEDTAVYYCARDSSGYDGYYAFAYWGQGTQVTVSS
VL: DIVLTQPPSVSGAPGQRGTISCSGSSSNIGSSSVNWYQQLPGTAPKLLIYRNNQRPSGVPDRFSGSKSGTSASLAITGLQAEDEADYYCASTDISRVIVFGGGTKLTVLG
binds: [3] | [4] | human CXCR2 [5]

B10: CX2-Mab #15 (Fab, V domains shown)
VH: EVQLLESGGGLVQPGGSLRLSCAASGFTFSRYWMSWVRQAPGKGLEWVSVISYSGSETYYADSVKGRFTISRDNSKNTLYLQMNSLRAEDTAVYYCARGRAYGYFDPWGQGTLVTVSS
VL: DIVLTQPPSVSGAPGQRVTISCSGSSSNIGKKTVSWYQQLPGTAPKLLIYRNNQRPSGVPDRFSGSKSGTSASLAITGLQAEDEADYYCGSTTSSHLYVFGGGTKLTVLG
binds: [6] | [1] | [7] | human CXCR2 [2]

B11: CX2-Mab #10 (Fab, V domains shown)
VH: EVQLLESGGGLVQPGGSLRLSCAASGFTFSRYWMSWVRQAPGKGLEWVSVISYSGSETYYADSVKGRFTISRDNSKNTLYLQMNSLRAEDTAVYYCARGRAYGYFDPWGQGTLVTVSS
VL: DIVLTQPPSVSGAPGQRVTISCSGSSSNIGKKTVSWYQQLPGTAPKLLIYRNNQRPSGVPDRFSGSKSGTSASLAITGLQAEDEADYYCSSTTSSSRSVVFGGGTKLTVLG
binds: [6] | [1] | [7] | human CXCR2 [2]

B12: CX2-Mab #12 (Fab, V domains shown)
VH: QVQLLESGGGLVQPGGSLRLSCAASGFTFSRYWMSWVRQAPGKGLEWVSVISYSGSETYYADSVKGRFTISRDNSKNTLYLQMNSLRAEDTAVYYCARGRAYGYFDPWGQGTLVTVSS
VL: DIVLTQPPSVSGAPGQRVTISCSGSSSNIGKKTVSWYQQLPGTAPKLLIYRNNQRPSGVPDRFSGSKSGTSASLAITGLQAEDEADYYCQSTDSTHRMAVFGGGTKLTVLG
binds: [6] | [1] | [7] | human CXCR2 [2]

B13: CX2-Mab #16 (Fab, V domains shown)
VH: EVQLLESGGGLVQPGGSLRLSCAASGFTFSRYWMSWVRQAPGKGLEWVSVISYSGSETYYADSVKGRFTISRDNSKNTLYLQMNSLRAEDTAVYYCARGRAYGYFDPWGQGTLVTVSS
VL: DIVLTQPPSVSGAPGQRVTISCSGSSSNIGKKTVSWYQQLPGTAPKLLIYRNNQRPSGVPDRFSGSKSGTSASLAITGLQAEDEADYYCGSTGYRGLYVFGGGTKLTVLG
binds: [6] | [1] | [7] | human CXCR2 [2]
